# In US20250295111A1, “ANTIMICROBIAL PEPTIDES OF ACTI[…] METHODS OF USE THEREOF” (THE REGENTS OF THE UNIVERSITY OF CALIFORNIA, priority 2023, published 2025):
# Tested on: Saccharomyces cerevisiae
# Assay: Antimicrobial peptide inhibition assay (filter paper disk on YPD agar plate, zone of inhibition)
# Format: cell-based
# Conditions: protein extract from recombinant E. coli BL21 (DE3) overexpressing the AMP, 6-mm filter paper disk on YPD agar plate, 30° C. for 24 h
# Procedure: A 102 amino acid AMP candidate from Streptosporangium becharense DSM 46887 (GenBank ID: MBB5817359.1) with a predicted molecular weight of 11.2 kDa, pI of 8.67 and charge of 3.5, was cloned in E. coli for functional validation. The sequence was codon optimized and sent to Twist Biosciences (San Francisco, CA) for synthesis and cloned into a pET-21 (+) expression vector. The plasmid DNA (pET-21 (+)_AMP_S.be) was then transferred into E. coli BL21 (DE3) strain with […] carbenicillin (MilliporeSigma, Burlington, MA) selection. To overexpress the short peptide, 100 mL of E. coli BL21 (DE3) harboring the recombinant plasmid was cultured in Luria-Bertani broth containing […] of carbenicillin at 37° C. until the mid-exponential phase. The overexpression was induced by addition of 0.1 mM isopropyl-b-D-thiogalactopyranoside (MilliporeSigma, Burlington, MA) at 25° C. and 120 rpm for 16 h. […]
# Yeast Saccharomyces cerevisiae was used for the antimicrobial activity assessment with proteins extracted from the recombinant E. coli. […] After incubation at 30° C. for 24 h, the antimicrobial activity of the short peptide was determined by appearance of the zone of inhibition. To confirm the overexpression of the short peptide, the protein extract was analyzed using SDS-PAGE gel (12% Mini-PROTEAN_TGXTM Precast Gel, Bio-Rad Laboratories, Hercules, CA). […]
molecule,measurement,setting,value
"AMP candidate from Streptosporangium becharense DSM 46887: 102 amino acid AMP candidate with signal peptide from Streptosporangium becharense DSM 46887, overexpressed in E. coli (protein, Streptosporangium becharense, 102 amino acid AMP candidate with signal peptide from Streptosporangium becharense DSM 46887, overexpressed in E. coli) MKRIFLVPALTAGIFALTTGAAYASQYIAYEGPGFTGRSVLIDACGPSNIPYHGSYKWYGDGQSGRMYNQPNAHGVMHFRLPSNNNAEQRTPVGWQSIFIEC",antimicrobial activity determined by appearance of the zone of inhibition,,Inhibition of Saccharomyces cerevisiae is demonstrated
same,antimicrobial activity determined by appearance of the zone of inhibition,listed as AMP candidate of Streptosporangium becharense DSM 46887,Inhibition of Saccharomyces cerevisiae
